{
  "source": "paper PMC8126848",
  "about": "(Proceedings of the National Academy of Sciences of the …, 2021)",
  "target": "soluble ectodomain of ICAM-1 (intercellular adhesion molecule-1), domains D1 to D5 (UniProt P05362 28-480)",
  "sequence (P05362 28-480)": "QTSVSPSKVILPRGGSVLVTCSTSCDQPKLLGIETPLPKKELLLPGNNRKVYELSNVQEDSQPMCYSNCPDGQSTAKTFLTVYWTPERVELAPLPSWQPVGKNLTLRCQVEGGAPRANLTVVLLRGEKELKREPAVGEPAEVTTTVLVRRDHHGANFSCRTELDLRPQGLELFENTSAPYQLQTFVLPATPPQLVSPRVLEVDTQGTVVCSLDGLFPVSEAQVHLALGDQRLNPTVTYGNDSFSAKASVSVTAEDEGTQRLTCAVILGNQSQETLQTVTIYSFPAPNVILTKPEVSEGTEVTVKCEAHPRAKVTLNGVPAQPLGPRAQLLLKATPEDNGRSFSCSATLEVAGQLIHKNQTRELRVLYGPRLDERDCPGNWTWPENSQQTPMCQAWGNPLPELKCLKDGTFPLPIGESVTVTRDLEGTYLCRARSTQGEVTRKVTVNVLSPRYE",
  "assay": "cryo-EM structure",
  "data": [
    {"binder": "rhinovirus 14 capsid protein VP2 (natural protein, rhinovirus 14 (strain 1059), UniProt P03303 70-331, looked up) SPNVEACGYSDRVQQITLGNSTITTQEAANAVVCYAEWPEYLPDVDASDVNKTSKPDTSVCRFYTLDSKTWTTGSKGWCWKLPDALKDMGVFGQNMFFHSLGRSGYTVHVQCNATKFHSGCLLVVVIPEHQLASHEGGNVSVKYTFTHPGERGIDLSSANEVGGPVKDVIYNMNGTLLGNLLIFPHQFINLRTNNTATIVIPYINSVPIDSMTRHNNVSLMVIPIAPLTVPTGATPSLPITVTIAPMCTEFSGIRSKSIVPQ", "values": [
      {"measurement": "binding result", "result": "binds"}
    ]}
  ]
}
